Data: publication PMC7932925

Tests used:
[1] = biological target: FLAG-tagged VEGF^121 (WT), a soluble splicing variant of VEGFA; test: non-reducing SDS-PAGE and FLAG immunoblot; FLAG-VEGF^121 immunopurified with FLAG-M1 antibody from conditioned media of transfected WT HeLa (and WT MDAMB231^m) cells; reducing against non-reducing immunoblot; disulfide-bonded homodimer against monomer
[2] = biological target: FLAG-tagged VEGF^121 (WT), a soluble splicing variant of VEGFA; test: non-reducing SDS-PAGE and FLAG immunoblot; FLAG-VEGF^121 immunopurified with FLAG-M1 antibody from conditioned media of transfected ERO1 KO HeLa (and ERO1 KO MDAMB231^m) cells; reducing against non-reducing immunoblot; disulfide-bonded homodimer against monomer

stoichiometry N [1]: 2 | monomer as percent of the total secreted VEGF^121 [2]: 80%
Substance: FLAG-tagged VEGF^121 (WT), a soluble splicing variant of VEGFA (ligand)
